Laboratory results published in patent US20230115257A1 (published 2023).
Positions count from the first letter of the chain named.

B1: 4-L4-A (antibody, V domains shown)
VH: QAYLQQSGAELVRPGASVKMSCKASGYTFTSYTVHWVKQTPRQGLEWIGGIYPGNVDTSYNQNFKGKATLTVDKSSSTAYMQLSSLTSEDSAVYFCARDGYYAMDYWGQGTSVTVSS
VL: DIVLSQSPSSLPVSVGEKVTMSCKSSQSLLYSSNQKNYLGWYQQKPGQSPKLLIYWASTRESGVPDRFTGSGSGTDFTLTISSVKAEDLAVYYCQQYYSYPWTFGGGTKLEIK
B2: 8-H5-A (antibody, V domains shown)
VH: QVTLKESGPGILQSSQTLSLTCSLSGFSLSTSGMGVSWVRQPSGKGLEWLAHIYWDDDKRYTPSLKSRLTISTDSSRKQVFLKITSVDTADTATYYCARRDLHDYDGWFAYWGQGTLVTVSA
VL: DIVMTQSQKFMSTAVGDRVSVTCKASQNVGTNVAWYQQKPGQSPKALIYSASFRYSGVPDRFSGSGSGTDFTLTISNVQSEDLAEYFCQQYNSYPLTFGSGTKLEIK
B3: 4-N22-A (antibody, V domains shown)
VH: QVQLQQPGTELVKPGASVKLSCKASGYTFTNYWMYWVKQRPGQGLDWIGNINPSNGGTNYNEKFKSKATLTVDKSSSTAYMQLSSLTSEDSAVYYCARETGNYWGQGTTLTVSS
VL: DILMTQSPSSMSVSLGDTVSISCHASQGISSNIGWLQQKPGKSFKGLIYHGTNLEDGVPSRFSGSGSGADYSLTISSLESEDFADYYCVQYAQFPYTFGGGTKLEIK
B4: 4-M3-A (antibody, V domains shown)
VH: EVQLQQSGPELVKPGDSVKISCKASGYSFTGYFMNWVMQSHGKSLEWIGRINPNNGETFYNQKFKGKATLTVDKSSDTAHMELRSLTSEDSAVYYCARGGTGTGWGQGTTLTVSS
VL: B3 VL with S22T, H50Y, F83L, V89I
B5: 2-H7-A (antibody, V domains shown)
VH: QAYLQQSGAELVRPGASVKMSCKASGYTFTGYTMHWVKQTPRQGLEWIGAIYPENGDTSYNQKFKGKATLTVDKSSSTAYMQLSSLTSEDSAVYFCARDGYDVLYGMDYWGQGTSVTVSS
VL: DIVLTQSPASLAVSLGQRATISCRASKSVSTSGYSYMHWYQQKPGQPPKLLIYLASNLESGVPARFSGSGSGTDFTLNIHPVEEEDAATYYCQHSRELPWTFGGGTKLDIK
B6: 2-G20-A (antibody, V domains shown)
VH: EVQLQQSGPELVKPGASVKMSCKASGYTFPSYVLHWVKQKPGQGLEWIGYIYPYNDGTNYNEKFKGKATLTSDKSSSTAYMELSSLTSEDSAVYYCARGDYGDSAWFPYWGQGTLVTVSA
VL: B5 VL with E59K, S69G, H94L, D109E
B7: 9-L13-A (antibody, V domains shown)
VH: QVQLKESGPGLVAPSQSLSITCTVSGFSLTSYAISWVRQPPGKGLEWLGLIWTGGGTNYNSALKSRLSISKDNSKSQIFLKMNSLQTDDTARYYCARGPPLIYYGDLYYFDYWGQGTTLTVSS
VL: DIQMTQSPSSLSASLGGKVTITCKASQDINKYIAWYQHKPGKGPRLLIHYTSTLQPGIPSRFSGSGSGRDYSFSISNLEPEDIATYYCLQYDNLWTFGGGTKLEIK
B8: 2-O12-A (antibody, V domains shown)
VH: EVQLQQSGPELVKPGASVKISCKASGYTFTDYYMNWVKQSHGKSLEWIGDINSNNGGTTYDQKFKGKATLTVDRSSSTAYMELRSLTSEDSAVYYCARRGDGHFGGFTYWGQGTLVTVSA
VL: not shown
B9: 6-O12-A (antibody, V domains shown)
VH: QVQLQQPGTELVKPGASVKLSCKASGYTFTSYWMHWVKQRPGQGLEWIGNINPSNGGTNYNEKFRSKATLTVDKSSSTAYMQLSSLTSEDSAVYYCARLGWFLPLGSWGQGTTLTVSS
VL: QIVLTQSPAIMSASLGEVITLTCSASSSVSYMHWYQQKSGTSPKLLIYSTSNLASGVPSRFSGSGSGTFYSLTISSVEAEDAADYYCHQWSGYMYTFGGGTKLEIK
B10: 1-L10-A (antibody, V domains shown)
VH: EVKLEESGGGLVQPGGSMKLSCVASGFTFNNYWMNWVRQSPEKGLEWVAQMRLKSDNYATHYAESVKGRFTISRDDSKSSVYLQMNNLRAEDTGIYYCIEGYWTYWGQGTLVTVSA
VL: QIVLTQSPAIMSASLGERVTMTCTASSSVSSSYLHWYQQKPGSSPKLWIYSTSNLASGVPARFSGNGSGTSYSLTISSMEAEDAATYYCLQYHRSPPYTFGGGTKLEIK
B11: 10-J24-A (antibody, V domains shown)
VH: EVQLVESGGGLVKPGGSLKLSCAASGFTFSSYAMSWVRQNPAKRLEWVATISGGGGFTYYPDSVKGRFTISRDNAKNTLYLQMNSLRSEDTAMYYCARDEDGKHDYFDYWGQGTTLTVSS
VL: DIVMTQSHKFMSTSVGDRVSITCKASQDVGTAVAWYQQKPGQSPKLLIYWASTRHTGVPDRFTGSGSGTDFTLTISNVQSEDLADYFCQQYASYPLTFGGGTKLVIK
B12: 4-C22-A (antibody, V domains shown)
VH: EVQLVESGGDLVKPGGSLKLSCAASGFTFSSFGMSWVRQTPDKRLEWVATISSGGGFTYYPDSVEGRFTISRDNAKNTLYLQMSSLKSEDTAMYYCARRLYDYDWFAYWGQGTLVTVSA
VL: B11 VL with F10I, G30V, Q38K, Y49H, A92S, G100A, V105E, I106L
B13: 6-C19-A (antibody, V domains shown)
VH: QIQLVQSGPELKKPGETVKISCKASGNTFTTAGMQWVQKMPGKGFKWIGWINTHSGEPKYAEDFKGRFAFSLETSASTAYLQISNLKNEDTATYFCARYGDYYYFDCWGQGTTLTVSS
VL: DIQMTQSPASLSASVGETVTITCRASGNIHNYLAWYQQKQGKSPQLLVYNAKTLADGVPSRFSGSGSGTQYSLKINSLQPEDFGSFYCQHFWTTPWSFGGGTKLEIK

target: SARS-CoV-2 B.1.1.7 spike protein (SARS-CoV-2 B.1.1.7 (Alpha), UniProt P0DTC2 13-1213); experiment: ELISA

| Binder | IC50 [nM] |
| --- | --- |
| B1 | 31.6 |
| B2 | 15.4 |
| B3 | 1.51 |
| B4 | 4.98 |
| B5 | 9.88 |
| B6 | 19.2 |
| B7 | 65.3 |
| B8 | 87.6 |
| B9 | 7.05 |
| B10 | 7.82 |

target: T1, SARS-CoV-2 P.1 spike protein (SARS-CoV-2 P.1 (Gamma), UniProt P0DTC2 13-1213); experiment: ELISA

| Binder | IC50 [nM] |
| --- | --- |
| B1 | 28.2 |
| B2 | 30.5 |
| B3 | 17.2 |
| B4 | 13.5 |
| B5 | 35.6 |
| B6 | 18.9 |
| B9 | 8.01 |
| B10 | 11.5 |

target: T1, SARS-CoV-2 P.1 spike protein; experiment: ELISA; remark: another data set of the same source

| Binder | EC50 [nM] |
| --- | --- |
| B11 | 16.1 |
| B12 | 1.44 |
| B13 | 0.62 |
